In patent publication US20030157553A1, “Methods of assaying for G protein-coupled receptor ligands and modulators” (priority 2000, published 2003):

Key:
β2AR [1] = assay: Agonist affinity shift assay ([125I] iodopindolol), formation of high agonist affinity complex (HAC); format: binding; settings: 1 μM arrestin, FIG. 2A
Source text: (§1) Mutagenesis and Biochemical Characterization of β-Arrestins—Mutations Arg169→Glu (CGG→GAG), Gln394→Ter (CAA→TAA), and Asp383→Ter (GAT→TAG) were introduced by polymerase chain reaction in β-arrestin construct pBARR (Gurevich et al. (1995) J. Biol. Chem. 270:720-731), that was used for in vitro transcription and translation, as described (Gurevich et al. (1995), supra). NcoI/HindIII 1404-base pair open reading frame was then subdloned into appropriately digested Escherichia coliexpression vector pTrcHisB (Invitrogen). […]
Agonist Affinity ShiftAssay—P-β2AR or β2AR (10-15 fmol/assay) was incubated in 0.25 ml of 10 mM Tris-HCl, pH 7.4, 100 mM NaCl (buffer A) containing 0.1 mg/ml bovine serum albumin in the presence of 65-75 fmol of [^125I] iodopindolol (NEN Life Science Products) and the indicated concentrations of arrestins and agonists for 60 min at 22° C. […] Receptor-containing liposomes with bound radioligand were eluted with buffer A (between 0.6 and 1.5 ml), and radioactivity was quantitated in a liquid scintillation counter. Nonspecific binding was determined in the presence of 10 μM alprenolol. […]

β2AR [2] = assay: Direct binding assay of in vitro translated tritiated arrestins to purified β2AR reconstituted into phospholipid vesicles; settings: unphosphorylated β2AR, activated by 0.1 mM agonist isoproterenol; FIG. 1A
Source text: as §1
Direct Binding Assay—In vitro translated tritiated arrestins (50 fmol) were incubated in 50 mM Tris-HCl, pH 7.5, 0.5 mM MgCl2, 1.5 mM dithiothreitol, 50 mM potassium acetate with 7.5 pmol of the various functional forms of rhodopsin or with P-β2AR or β2AR (100 fmol/assay) in a final volume of 50 μl for 5 min at 37° C. in room light (rhodopsin) or for 60 min at 30° C. in the presence of 0.1 mM -agonist isoproterenol. […] Nonspecific binding determined in the presence of 0.3 μg of liposomes was subtracted.

binding to activated unphosphorylated receptor (β2AR [2]): significantly higher binding
B1: β-arrestin-(Arg169→Glu): bovine β-arrestin mutant Arg169→Glu that reverses the charge of the putative phosphorylation-sensitive trigger (protein)
chain: MGDKGTRVFKKASPNGKLTVYLGKRDFVDHIDLVEPVDGVVLVDPEYLKERRVYVTLTCAFRYGREDLDVLGLTFRKDLFVANVQSFPPAPEDKKPLTRLQERLIKKLGEHAYPFTFEIPPNLPCSVTLQPGPEDTGKACGVDYEVKAFCAENLEEKIHKRNSVRLVIEKVQYAPERPGPQPTAETTRQFLMSDKPLHLEASLDKEIYYHGEPISVNVHVTNNTNKTVKKIKISVRQYADICLFNTAQYKCPVAMEEADDTVAPSSTFCKVYTLTPFLANNREKRGLALDGKLKHEDTNLASSTLLREGANREILGIIVSYKVKVKLVVSRGGLLGDLASSDVAVELPFTLMHPKPKEEPPHREVPEHETPVDTNLIELDTNDDDIVFEDFARQRLKGMKDDKEEEEDGTGSPRLNDR
percentage of HAC formed by unphosphorylated β2AR (β2AR [1]): 22±4%
